# Results published in patent US20060058236A1, “Endogenously-formed conjugate of albumin” (priority 2004, published 2006).
# Legend:
# human serum albumin = human serum albumin (Homo sapiens, UniProt P02768); test: Incubation of Epo conjugates with human serum albumin, SDS-PAGE and anti-HSA immunoblot; format: in vitro ADME; conditions: 0.05% HSA, 21 hours at 37° C., no small molecule thiols
# Protocol: mPEG-DTB-Epo (prepared as described above), mPEG-Epo, or Epo (0.2 mg/mL) was incubated with 0.05% human serum albumin (HSA) in 100 mM HEPES, 2 mM EDTA, pH 7.5 buffer for 21 hours at 37° C. […] The SDS-PAGE gel stained with SYPRO™ red protein stain is shown in FIG. 14A and an immunoblot probed with anti-HSA is shown in FIG. 14B.
# [1] = Pharmacokinetic profile in rats dosed intravenously with 125I-labeled lysozyme or its PEG conjugates; format: in vivo, rat; conditions: intravenous
# Protocol: Lysozyme (66 mg in […] in 0.1 M sodium phosphate buffer pH 7.3) was mixed with 605 μCi of Na^125I (ICN Biomedicals, Irvine, Calif.), in Iodo-Gen® coated tube (Pierce Chemical Company, Rockford, Ill.), and allowed to react for 1 hour at room temperature with 20 min intervals mixing. The iodination reaction was stopped by removing the free ^125I on a Sephadex G-25F gel filtration column (17 mL), and collecting the ^125I-lysozyme, which was then reacted with either mPEG-DTB-NPC and mPEG-NPC, and purified by cation exchange chromatography as described above.
# Male Sprague-Dawley rats (250-330 g each, 3 animals per formulation per experiment) were dosed either by intravenous (via a lateral tail vein) or by subcutaneous (dorsally above the right rear leg) with ^125I labeled lysozyme or its PEG conjugates (0.35 mL, 0.4 mg protein/mL, 4.6×10^6 cpm/mL). Blood samples (0.4 mL) were collected via the retro-orbital sinus. All injections blood collections were performed while the animals were under inhaled anesthesia (isoflurane/O2). Samples were collected on heparin into polypropylene tubes and stored on ice for no longer than one hour before being pipetted in triplicate (0.100 mL) into fresh polypropylene tubes. Blood samples were collected at the following times after dosing (no single rat had blood collected at all of the following times): 30 sec, 15 min, 30 min and 1, 2, 3, 4, 6, 8, 24, 48, 72, 96, 120 and 168 hours post-dose. Note that the last 4 time points were added for the longer subcutaneous experiments. The samples were then counted for ^125I in a Packard™ 5000 gamma counter. The cpm counts were converted to concentration according to the specific activity of the samples.
# bovine serum albumin = target: T1, bovine serum albumin (Bos taurus, UniProt P02769); test: Decomposition of PEG-DTB-lysozyme conjugates in 4% BSA solution, HPLC; format: in vitro ADME; conditions: room temperature, pH 7.4, HPLC after Q spin column
# T1 construct: purchased Proliant (Ankeny, IA)
# T1 sequence (P02769 25-607): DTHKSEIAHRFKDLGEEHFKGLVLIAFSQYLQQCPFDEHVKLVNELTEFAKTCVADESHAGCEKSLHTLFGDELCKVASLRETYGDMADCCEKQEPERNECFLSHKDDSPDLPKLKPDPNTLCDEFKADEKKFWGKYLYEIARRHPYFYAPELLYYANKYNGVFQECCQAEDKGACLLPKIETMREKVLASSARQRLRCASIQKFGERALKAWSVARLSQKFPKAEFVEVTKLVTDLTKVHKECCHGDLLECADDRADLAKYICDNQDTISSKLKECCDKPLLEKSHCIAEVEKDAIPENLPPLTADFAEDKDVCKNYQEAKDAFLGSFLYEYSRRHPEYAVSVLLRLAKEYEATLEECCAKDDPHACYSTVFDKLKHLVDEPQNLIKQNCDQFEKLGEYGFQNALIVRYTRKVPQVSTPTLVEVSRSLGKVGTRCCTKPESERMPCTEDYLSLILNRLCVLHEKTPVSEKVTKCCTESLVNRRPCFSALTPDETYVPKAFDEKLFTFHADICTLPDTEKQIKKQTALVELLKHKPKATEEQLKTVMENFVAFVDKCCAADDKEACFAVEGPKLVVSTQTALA
# Protocol: (§1) Conjugates of PEG-DTB-lysozyme were prepared as described in Example 1A. The conjugates (100 μg/mL=0.066 mM) were incubated in 0.6 mM cysteine or with 4% BSA at room temperature (22-24° C.), in 10 mM phosphate buffer pH 7.4 containing 2 mM EDTA. Aliquots were taken at various time points, reactions were stopped with 20 mM iodoacetamide, and stored at 2-8° C. until analysis.
# For the conjugates incubated with BSA, analysis of the samples was done by diluting the samples 1/10 in 10 mM PO4 pH 7.4, passing through Q spin columns (Vivascience) in order to trap the albumin and any of its related products, and then analyzing on the same CM column.
# (§2) HPLC was performed with the following conditions: Column: TOSOH TSK CM-5PW 10 micron (7.5 mm×7.5 cm); Mobile phase: (A) 10 mM NaPO4 pH 7.4 and (B) 500 mM NaCl in 10 mM NaPO4 pH 7.4; Gradient: 5 min 100% A, 20 min 0% B to 100% B; Flow rate: 1 mL/min; Fluorescence detector: λex 295 nm, λem 360 nm (slit 30 nm); and injection volume, 100 μL.
# [2] = Decomposition of PEG-DTB-lysozyme conjugates in cysteine solution, HPLC; format: in vitro ADME; conditions: 0.6 mM cysteine, room temperature, pH 7.4, HPLC
# Protocol: as §1
# For the conjugates incubated with cysteine, analysis of the aliquots was as done follows. The samples were diluted 1/10 in 10 mM NaPO4 pH 7.4 and analyzed on a carboxymethyl (CM) cation exchanger column.
# as §2
# Micrococcus luteus = Micrococcus luteus turbidity assay of active lysozyme after cleavage of the conjugate; format: biochemical
# Protocol: A Micrococcus luteus turbidity assay was used to measure the amount of active lysozyme regenerated after cleavage of the conjugate.
# At various time points, aliquots from the incubation vials were added to iodoacetamide to a final concentration of 20 mM, in order to stop the cleavage reaction. Samples were stored at 2-8° C. prior to analysis.
# Micrococcus luteus stock solution was prepared at 0.3 mg/mL in 100 mM KPO4 pH 7. Lysozyme standards solutions were prepared at 1, 2, 4, 6, 8, and 10 μg/mL in PBS and a lysozyme standard curve was constructed (not shown). The samples from the cleavage reactions were diluted 1/10 in PBS. For the assay, 50 μL of standard, sample, or control were added per well to 96-well microtiter plates. To each well, 200 μL of Micrococcus luteus were added, and without delay, plates were read at 450 nm at 25° C. in a plate reader of a period of 10 min, in 30 second reading intervals.
# The slopes (ΔA/min) were calculated for the first 5 minutes of the reading, and the corresponding lysozyme concentrations were extrapolated from the lysozyme standard curve.
substance,measurement,setting,value
"Epo: Recombinant, human erythropoietin (EPO, EPREX)",formation of albumin-Epo conjugate,human serum albumin,Neither Epo alone nor the noncleavable mPEG-Epo formed the albumin-Epo conjugate
lysozyme: lysozyme as a model therapeutic agent,clearance from the blood stream / circulation lifetime,[1]; 24 hour period,cleared rapidly
mPEG5K-DTB-lysozyme: methoxypolyethylene glycol (5 kDa) joined to lysozyme through a methyl-dithiobenzyl urethane linkage,calculated half-life of remaining conjugate upon incubation in BSA,bovine serum albumin,5 h
same,calculated half-life of remaining conjugate upon incubation in cysteine,[2],0.75 h
same,active lysozyme regenerated from the cysteine cleavage,"Micrococcus luteus; 0.6 mM cysteine, 37° C.",74 µg/mL
same,active lysozyme concentration after cleavage with BSA,"Micrococcus luteus; 4% BSA, 37° C., after 24 hours",approximately 18 μg/mL
same,active lysozyme after BSA cleavage as percent of that from cysteine cleavage,Micrococcus luteus; 24 hours,24%
same,release of lysozyme from the PEG in saline,Micrococcus luteus; saline at 37° C. for up to 24 hours,did not induce release of the lysozyme
mPEG12K-DTB-lysozyme: methoxypolyethylene glycol (12 kDa) joined to lysozyme through a methyl-dithiobenzyl urethane linkage,calculated half-life of remaining conjugate upon incubation in BSA,bovine serum albumin,6 h
same,calculated half-life of remaining conjugate upon incubation in cysteine,[2],1 h
same,"AUC values, cleavable vs noncleavable conjugate",[1],similar
same,"half-lives, cleavable vs noncleavable conjugate",[1],similar
